In patent US20070161569A1 (GENERAL HOSPITAL, published 2007):
Non-standard residues stand in square brackets, D forms with d. No end group written: not given here. hArg = N=C(N)NCCCC[C@H](N)C(=O)O; Ac5c = NC1(C(=O)O)CCCC1; Deg = CCC(N)(CC)C(=O)O; Ac3c = NC1(C(=O)O)CC1; Aib = CC(C)(N)C(=O)O

Experiments:
[1] = target: T1, recombinant P1R chimera expressed in HKRK-B28 cells (opossum P1R from the N-terminus to the mid region of … (opossum; rat, UniProt P25107 27-288; P25961 295-591, limits assumed); test: competition binding to the P1R (HKRK-B28 cells by the FIG. 3 legend)
T1 construct: domain: N-terminus to the mid region of TM3;domain: mid region of TM3 to the C-terminus; also called PTH-1 receptor; receptor of HKRK-B28 cells
Description: Competition Binding. Binding reactions were performed with HKRK-B28 cells or in COS-7 cells in 24-well plates. The cells were rinsed with 0.5 mL of binding buffer, and then treated successively with 100 μL binding buffer, 100 μL of binding buffer containing various amounts of unlabeled competitor ligand, and 100 μL of binding buffer containing ca. 100,000 cpm of ¹²⁵I-[Aib^{1,3},Nle⁸,Gln¹⁰,Har¹¹,Ala¹²,Trp¹⁴,Arg¹⁹,Tyr²¹]rPTH(1-21) (SEQ. ID. NO. 36) (ca. 26 fmol; final volume=300 μL). Incubations were 4 to 6 h at 4° C., at which time near equilibrium conditions were attained. Cells were then placed on ice, the binding medium was removed, and the monolayer was rinsed three times with 0.5 mL of cold binding buffer. The cells were subsequently lysed with 0.5 mL 5N NaOH and counted for radioactivity. For each tracer and in each experiment, the non-specific binding was determined as the radioactivity that bound in the presence of the same unlabeled peptide at a concentration of 1 μM, and was ˜1% of total radioactivity added for each tracer. The maximum specific binding (B₀) was the total radioactivity bound in the absence of competing ligand, corrected for nonspecific binding, and for each tracer, ranged from 8% to 20% of the total radioactivity added. Nonlinear regression was used to calculate binding IC₅₀ values (see below). […]

[2] = target: T1, recombinant P1R chimera expressed in …; test: cell-based or functional assay
[3] = target: T1, recombinant P1R chimera expressed in …; test: competition binding on B28 cells against 125I-PTH(1-21) tracer (SEQ ID NO 36)
Description: (§1) Competition Binding. Binding reactions were performed with HKRK-B28 cells or in COS-7 cells in 24-well plates. The cells were rinsed with 0.5 mL of binding buffer, and then treated successively with 100 μL binding buffer, 100 μL of binding buffer containing various amounts of unlabeled competitor ligand, and 100 μL of binding buffer containing ca. 100,000 cpm of ¹²⁵I-[Aib^{1,3},Nle⁸,Gln¹⁰,Har¹¹,Ala¹²,Trp¹⁴,Arg¹⁹,Tyr²¹]rPTH(1-21) (SEQ. ID. NO. 36) (ca. 26 fmol; final volume=300 μL). Incubations were 4 to 6 h at 4° C., at which time near equilibrium conditions were attained. Cells were then placed on ice, the binding medium was removed, and the monolayer was rinsed three times with 0.5 mL of cold binding buffer. The cells were subsequently lysed with 0.5 mL 5N NaOH and counted for radioactivity. For each tracer and in each experiment, the non-specific binding was determined as the radioactivity that bound in the presence of the same unlabeled peptide at a concentration of 1 μM, and was ˜1% of total radioactivity added for each tracer. The maximum specific binding (B₀) was the total radioactivity bound in the absence of competing ligand, corrected for nonspecific binding, and for each tracer, ranged from 8% to 20% of the total radioactivity added. Nonlinear regression was used to calculate binding IC₅₀ values (see below). Scatchard transformations of homologous competition binding data derived from studies with 26 fmol of ¹²⁵I-[Aib^{1,3},Nle⁸,Gln¹⁰,Har¹¹,Ala¹²,Trp¹⁴, Arg¹⁹,Tyr²¹]rPTH(1-21) (SEQ. ID. NO. 36) were employed for estimations of apparent equilibrium dissociation constant (kDapps) and total number of ligand binding sites (Bₘₐₓ), assuming a single class of binding sites and equal affinities of the iodinated and non iodinated ligand.

[4] = target: T1, recombinant P1R chimera expressed in …; test: competition binding on HKRK-B28 cells against 125I-PTH(1-21) tracer (SEQ ID NO 36)
Description: as §1, with “Incubations” for “Competition Binding. Binding reactions were performed with HKRK-B28 cells or in COS-7 cells in 24-well plates. The cells were rinsed with 0.5 mL of binding buffer, and then treated successively with 100 μL binding buffer, 100 μL of binding buffer containing various amounts of unlabeled competitor ligand, and 100 μL of binding buffer containing ca. 100,000 cpm of ¹²⁵I-[Aib^{1,3},Nle⁸,Gln¹⁰,Har¹¹,Ala¹²,Trp¹⁴,Arg¹⁹,Tyr²¹]rPTH(1-21) (SEQ. ID. NO. 36) (ca. 26 fmol; final volume=300 μL). Incubations”, “ligand. […]” for “ligand.”

[5] = target: T2, P1R-delNt, a recombinant human PTH-1 receptor construct in which most of the amino-terminal extracellular … (human, UniProt Q03431 23-593, limits assumed); test: cell-based or functional assay
T2 sequence (looked up): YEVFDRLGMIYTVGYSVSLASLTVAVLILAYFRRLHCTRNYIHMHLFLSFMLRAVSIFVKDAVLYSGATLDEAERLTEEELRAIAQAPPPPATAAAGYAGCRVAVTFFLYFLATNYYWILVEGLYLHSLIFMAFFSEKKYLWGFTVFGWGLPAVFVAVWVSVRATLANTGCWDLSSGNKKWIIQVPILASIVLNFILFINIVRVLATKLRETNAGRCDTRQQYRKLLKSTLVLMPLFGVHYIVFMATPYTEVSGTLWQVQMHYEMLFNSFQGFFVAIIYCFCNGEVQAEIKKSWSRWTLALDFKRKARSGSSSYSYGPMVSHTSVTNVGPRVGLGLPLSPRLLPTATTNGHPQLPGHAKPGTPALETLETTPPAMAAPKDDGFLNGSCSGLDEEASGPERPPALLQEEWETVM

[6] = target: T3, wild-type human P1R transiently expressed in COS-7 cells (human, UniProt Q03431 27-593); test: cell-based or functional assay
T3 sequence (looked up): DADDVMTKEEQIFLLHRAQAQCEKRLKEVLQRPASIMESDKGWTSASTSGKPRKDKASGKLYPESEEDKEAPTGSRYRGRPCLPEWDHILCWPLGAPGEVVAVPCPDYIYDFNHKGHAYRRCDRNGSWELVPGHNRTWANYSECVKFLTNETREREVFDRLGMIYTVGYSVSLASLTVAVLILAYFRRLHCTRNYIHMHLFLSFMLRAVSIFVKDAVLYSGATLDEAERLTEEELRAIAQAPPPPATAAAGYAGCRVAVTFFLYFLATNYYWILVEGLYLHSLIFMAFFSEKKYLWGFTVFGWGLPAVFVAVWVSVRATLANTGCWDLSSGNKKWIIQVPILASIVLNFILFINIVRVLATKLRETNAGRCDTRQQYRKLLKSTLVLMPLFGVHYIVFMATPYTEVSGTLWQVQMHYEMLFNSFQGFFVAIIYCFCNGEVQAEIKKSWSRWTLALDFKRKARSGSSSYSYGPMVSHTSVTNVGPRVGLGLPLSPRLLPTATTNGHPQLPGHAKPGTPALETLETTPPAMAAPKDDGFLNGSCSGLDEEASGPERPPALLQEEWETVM

T1 sequence (P25107 other isoform, or with tags, fused parts or gaps limits assumed): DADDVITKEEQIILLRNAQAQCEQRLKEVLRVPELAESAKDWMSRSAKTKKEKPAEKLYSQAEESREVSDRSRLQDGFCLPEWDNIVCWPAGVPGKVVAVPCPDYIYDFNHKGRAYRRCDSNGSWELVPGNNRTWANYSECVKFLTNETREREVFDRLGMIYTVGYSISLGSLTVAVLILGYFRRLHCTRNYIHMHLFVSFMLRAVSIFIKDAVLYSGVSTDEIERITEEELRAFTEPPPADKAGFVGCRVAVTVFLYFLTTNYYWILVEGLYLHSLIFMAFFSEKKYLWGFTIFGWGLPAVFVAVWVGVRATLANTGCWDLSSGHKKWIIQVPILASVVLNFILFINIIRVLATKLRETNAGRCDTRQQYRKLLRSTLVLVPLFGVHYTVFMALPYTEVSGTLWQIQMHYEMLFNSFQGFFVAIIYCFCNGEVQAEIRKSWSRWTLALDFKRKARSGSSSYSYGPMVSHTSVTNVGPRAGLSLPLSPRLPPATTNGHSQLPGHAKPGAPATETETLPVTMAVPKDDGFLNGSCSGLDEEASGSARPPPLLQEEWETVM

[Ac5c]V[Ac5c]EIQLMHQ[hArg]AKW-NH2 (also called [Ac5c^1,3,M]PTH(1-14)) [[Ac5c^1,3,Gln^10,Har^11,Ala^12,Trp^14]PTH(1-14)NH2]
fold higher affinity than the parent peptide [1]: 20 fold | cAMP signaling, fold more potent than the parent peptide [2]: 30 fold

B1: [M]PTH(1-14) analog in which alanine-3 is substituted with 1-aminocyclopropane-1-carboxylic acid (Ac3c) (peptide)
peptide: AV[Ac3c]EIQLMHQ[hArg]AKW-NH2
modifications: N-terminus assumed
SMILES: CC[C@H](C)[C@H](NC(=O)[C@H](CCC(=O)O)NC(=O)C1(NC(=O)[C@@H](NC(=O)[C@H](C)N)C(C)C)CC1)C(=O)N[C@@H](CCC(N)=O)C(=O)N[C@@H](CC(C)C)C(=O)N[C@@H](CCSC)C(=O)N[C@@H](Cc1c[nH]cn1)C(=O)N[C@@H](CCC(N)=O)C(=O)N[C@@H](CCCCNC(=N)N)C(=O)N[C@@H](C)C(=O)N[C@@H](CCCCN)C(=O)N[C@@H](Cc1c[nH]c2ccccc12)C(N)=O
notes: also called Ac3c^3-containing analog; Ac3c-3
fold lower affinity than [M]PTH(1-14) [3]: 14 fold | fold reduced affinity relative to the parent analog [4]: ~10 fold | cAMP-stimulating potency, fold increase over the parent analog [2]: < 2 fold

[Ac5c]V[Aib]EIQLMHQ[hArg]AKW-NH2 (also called [Ac5c^1,Aib^3,M]PTH(1-14)) [[Ac5c^1,Aib^3,Gln^10,Har^11,Ala^12,Trp^14]PTH(1-14)NH2]
IC50 [3]: 0.1 µM | fold more potent than [Aib^1,3,M]PTH(1-14) for inhibiting tracer binding [3]: 2 fold | cAMP EC50 in LdelNt-2 cells [5]: 0.0064 µM | increase in cAMP accumulation in LdelNt-2 cells [5]: 70 fold | stimulating phospholipase C, fold more potent than [Aib^1,3,M]PTH(1-14) [6]: 2 fold | cAMP potency (EC50) [2]: 0.0009 µM | increase in cAMP levels relative to basal, peptide at 10 nM, HKRK-B28 cells [2]: 38 fold | stimulating adenylyl cyclase, fold more potent than [Aib^1,3,M]PTH(1-14) [2]: 2 fold

B2: [Ala^1,3,12,Gln^10,Har^11,Trp^14]PTH(1-14)NH2 (peptide)
peptide: AVAEIQLMHQ[hArg]AKW-NH2
modifications: N-terminus assumed
SMILES: CC[C@H](C)[C@H](NC(=O)[C@H](CCC(=O)O)NC(=O)[C@H](C)NC(=O)[C@@H](NC(=O)[C@H](C)N)C(C)C)C(=O)N[C@@H](CCC(N)=O)C(=O)N[C@@H](CC(C)C)C(=O)N[C@@H](CCSC)C(=O)N[C@@H](Cc1c[nH]cn1)C(=O)N[C@@H](CCC(N)=O)C(=O)N[C@@H](CCCCNC(=N)N)C(=O)N[C@@H](C)C(=O)N[C@@H](CCCCN)C(=O)N[C@@H](Cc1c[nH]c2ccccc12)C(N)=O
notes: also called [M]PTH(1-14); parent
IC50 [3]: ~3 µM | IC50 [4]: 27 µM | cAMP accumulation potency (EC50) in HKRK-B28 cells [2]: 0.22 µM | cAMP potency (EC50) [2]: 0.2 µM

B3: [Deg^1,3,Gln^10,Har^11,Ala^12,Trp^14]PTH(1-14)NH2 (peptide)
peptide: [Deg]V[Deg]EIQLMHQ[hArg]AKW-NH2
modifications: N-terminus assumed
SMILES: CC[C@H](C)[C@H](NC(=O)[C@H](CCC(=O)O)NC(=O)C(CC)(CC)NC(=O)[C@@H](NC(=O)C(N)(CC)CC)C(C)C)C(=O)N[C@@H](CCC(N)=O)C(=O)N[C@@H](CC(C)C)C(=O)N[C@@H](CCSC)C(=O)N[C@@H](Cc1c[nH]cn1)C(=O)N[C@@H](CCC(N)=O)C(=O)N[C@@H](CCCCNC(=N)N)C(=O)N[C@@H](C)C(=O)N[C@@H](CCCCN)C(=O)N[C@@H](Cc1c[nH]c2ccccc12)C(N)=O
notes: also called [Deg^1,3,M]PTH(1-14)
fold higher affinity than the parent peptide [1]: 50 fold | cAMP EC50 in LdelNt-2 cells [5]: 1.4 µM | cAMP Emax over basal in LdelNt-2 cells (partial agonist behavior) [5]: 23 fold
